For experiment [1], the target named is SKN-1 50 amino acid bait construct encoding the lax188(E237K) mutation (C. elegans). Description: two-hybrid.
Experiment [2] addresses SKN-1 50 amino acid bait construct encoding the lax120(S245L) mutation (C. elegans). Description: two-hybrid.

Among the data in PMC3774140 are percent decrease of the interaction against the wild-type 50-mer bait values, retold here.

Turning to “PGAM-5 (Y2H prey from the cDNA library) (natural protein)”, the percent decrease of the interaction against the wild-type 50-mer bait in experiment [1] is 72%; in experiment [2], 75%.
